The values below come from US20140072563A1 (Regeneron, published 2014).

Assay [1] has as its target T1, hErbB3.mmh (soluble monomeric human ErbB3 extracellular domain with C-terminal myc-myc-hexahistidine tag) (human, UniProt P21860 20-642). The assay is described as follows: SPR (Biacore), 25 C, mAb capture format. On the procedure: (§1) (Tables 2-4). Measurements were conducted on a Biacore 2000 or T100 instrument. […] Kinetic association (kₐ) and dissociation (kd) rate constants were determined by processing and fitting the data to a 1:1 binding model using Scrubber 2.0 curve fitting software.
A general note: In SPR one partner is held on a chip, and binding of the other changes the refractive index at the surface.

Assay [2] has as its target T2, hErbB3.mFc (soluble dimeric human ErbB3 extracellular domain fused to mouse Fc) (human).
T2 construct: called dimeric
T2 chain: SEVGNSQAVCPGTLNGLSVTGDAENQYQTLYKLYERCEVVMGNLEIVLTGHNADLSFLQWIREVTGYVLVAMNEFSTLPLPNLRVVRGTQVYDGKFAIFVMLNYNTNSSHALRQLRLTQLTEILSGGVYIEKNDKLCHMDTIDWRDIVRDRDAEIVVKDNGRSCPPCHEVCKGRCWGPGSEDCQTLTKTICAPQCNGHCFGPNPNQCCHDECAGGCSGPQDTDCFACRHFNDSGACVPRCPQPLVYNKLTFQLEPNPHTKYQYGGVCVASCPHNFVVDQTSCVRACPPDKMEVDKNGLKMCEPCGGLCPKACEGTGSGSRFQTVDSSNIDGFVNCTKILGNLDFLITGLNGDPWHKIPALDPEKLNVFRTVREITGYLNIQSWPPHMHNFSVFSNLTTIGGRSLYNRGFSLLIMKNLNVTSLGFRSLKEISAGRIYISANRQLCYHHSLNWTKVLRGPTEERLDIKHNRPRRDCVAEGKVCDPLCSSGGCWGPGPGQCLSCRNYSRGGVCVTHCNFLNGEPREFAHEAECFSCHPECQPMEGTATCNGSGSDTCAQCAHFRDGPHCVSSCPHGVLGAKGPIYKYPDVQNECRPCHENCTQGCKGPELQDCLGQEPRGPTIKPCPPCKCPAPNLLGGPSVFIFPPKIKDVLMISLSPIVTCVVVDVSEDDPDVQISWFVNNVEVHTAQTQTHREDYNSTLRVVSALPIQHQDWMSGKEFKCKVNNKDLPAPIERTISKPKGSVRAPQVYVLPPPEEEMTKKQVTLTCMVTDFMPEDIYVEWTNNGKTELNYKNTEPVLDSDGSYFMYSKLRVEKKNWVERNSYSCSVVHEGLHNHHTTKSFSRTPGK
As to the kind of experiment: SPR (Biacore), 25 C, mAb capture format. On the procedure:
as §1

Assay [3] addresses T1, hErbB3.mmh (soluble monomeric human …). As to the kind of experiment: SPR (Biacore), 37 C, mAb capture format. The protocol: as §1
The target of assay [4] is T2, hErbB3.mFc (soluble dimeric human ErbB3 …). As to the kind of experiment: SPR (Biacore), 37 C, mAb capture format. On the procedure:
as §1

B1: H4H1821N (antibody, V domains shown)
VH: EVQLVESGGGLVQPGRSLRLSCAASGFTFDDYAMHWVRQAPGKGLEWVSSISWNSGSIGYADSVKGRFTISRDNAKNSLYLQMNSLKPEDTALYYCTKDTDYGDYLDAFDIWGQGTMVAVAS
VL: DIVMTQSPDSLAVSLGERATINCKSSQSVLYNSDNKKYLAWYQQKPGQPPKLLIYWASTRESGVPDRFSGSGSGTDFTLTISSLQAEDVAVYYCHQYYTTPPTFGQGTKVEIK
notes: Human IgG4 Fc (H4H prefix); same variable domains as H2M1821N
As usually defined, the Kd is the free concentration of one partner at which half of the binding sites on the other are occupied at equilibrium, for simple one-to-one binding. In general, koff refers to the rate constant with which the complex falls apart. A high value points to a short-lived complex. As a reminder, the kon is the second-order rate constant of association. In assay [1], B1 yielded a Kd of 0.051 nM, a T½ of 1 h, a dissociation rate constant (koff) of 0.000192 s⁻¹ and a kon of 3.8e+06 M⁻¹ s⁻¹. In assay [2], this molecule gave a Kd of 0.000355 nM, a T½ of 44.4 h, an off-rate (koff) of 4.33e-06 s⁻¹ and a kon of 1.22e+07 M⁻¹ s⁻¹. In assay [3], this molecule had a Kd of 0.167 nM, a T½ of 0.183 h, a koff of 0.00108 s⁻¹ and a kon of 6.49e+06 M⁻¹ s⁻¹. In assay [4], this molecule came in with a Kd of 0.00189 nM, a T½ of 5.43 h, a koff of 3.55e-05 s⁻¹ and a kon of 1.87e+07 M⁻¹ s⁻¹.

B2: H4H1819N (antibody, V domains shown)
VH: EVQLVESGGGVVRPGGSLRLSCAASGFTFDDYAMHWVRQAPGKGLEWVAGISWNSGSIDYADSVKGRFTISRDNAKNSLYLQMNSLRAGDTALYYCAKDILDLDYYGLDVWGQGTTVTVSS
VL: DIQMTQSPSSLSASVGDRVTITCRASQDISSYLAWYQQKPGKVPNLLIYDASSLQSGVPSRFSGSGSGTDFTLTLSSLQPEDFASYYCQNYNSAPYTFGQGTKLEIK
notes: Human IgG4 Fc (H4H prefix); same variable domains as H1M1819N
In assay [1], B2 had a Kd of 0.0435 nM, a T½ of 0.55 h, a koff of 0.000351 s⁻¹ and a kon of 8.1e+06 M⁻¹ s⁻¹. In assay [2], this molecule displayed a Kd of 0.000943 nM, a T½ of 12.5 h, a koff of 1.54e-05 s⁻¹ and a kon of 1.64e+07 M⁻¹ s⁻¹. In assay [3], this molecule gave a Kd of 0.129 nM, a T½ of 0.117 h, a koff of 0.00156 s⁻¹ and an association rate constant (kon) of 1.21e+07 M⁻¹ s⁻¹. Moreover, in assay [4], binding was characterised by a dissociation constant (Kd) of 0.00153 nM, the T½ was 3.43 h, the koff worked out at 5.62e-05 s⁻¹ and the association rate constant (kon) was determined as 3.68e+07 M⁻¹ s⁻¹.
